Assay results: publication PMC11076555, “Dishevelled2 activates WGEF via its interaction with a unique internal peptide motif of the GEF” (Communications Biology, 2024)

B1: Human Dishevelled2 PDZ domain (domain or fragment, UniProt O14641 261-354, looked up)
chain: MSLNIITVTLNMEKYNFLGISIVGQSNERGDGGIYIGSIMKGGAVAADGRIEPGDMLLQVNDMNFENMSNDDAVRVLRDIVHKPGPIVLTVAKC
modifications: Monolith Red-maleimide 2nd generation cysteine-reactive fluorescent label (in the MST experiments)
notes: Dishevelled2 (Dvl2), human, PDZ domain; Addgene plasmid 38876 changed by a stop codon after C354 to remove the peptide fused at the C-terminus of the PDZ; Used unlabelled in the GEF assays and labelled in MST; also called Dvl2^PDZ; hDvl2^PDZ; source: E. coli Rosetta (DE3), purified (Ni-NTA, TEV cleavage, second Ni-NTA, gel filtration); not shown: His6, N-terminal, cleaved
B2: N3^pep (peptide)
peptide: EIVLWSDIP
notes: engineered peptide, closest homologue of WGEF^pep; structure with Dvl2^PDZ in PDB 3CC0; also called engineered internal peptide N3; source: synthetic peptide, bought: Sai Biotech
B3: WGEF^pep (internal PDZ binding motif peptide of WGEF) (peptide)
peptide: GSTFSLWQDIP
notes: also called WGEF IPM peptide; source: synthetic peptide, bought: Sai Biotech
B4: WGEF^pepL6A (peptide)
peptide: GSTFSAWQDIP
notes: WGEF (Arhgef19), human residues 349-359 with L6A; numbers count on: the peptide (1-11); L6 is L354 of human WGEF and L407 of Xenopus WGEF (from the printed limits); source: synthetic peptide, bought: Sai Biotech
B5: WGEF^pepQ8A (peptide)
peptide: GSTFSLWADIP
notes: WGEF (Arhgef19), human residues 349-359 with Q8A; numbers count on: the peptide (1-11); Q8 is Q356 of human WGEF (from the printed limits); source: synthetic peptide, bought: Sai Biotech
B6: WGEF^pepI10A (peptide)
peptide: GSTFSLWQDAP
notes: WGEF (Arhgef19), human residues 349-359 with I10A; numbers count on: the peptide (1-11); I10 is I358 of human WGEF (from the printed limits); also called Ile at P1 to Ala; source: synthetic peptide, bought: Sai Biotech

Tests used:
[1] = target: Xenopus laevis WGEF (330-856) (Xenopus laevis); assay: cell-based or functional assay
[2] = target: T1, human WGEF (330-581) (human, UniProt Q8IW93 330-581); assay: MST; 50 nM fluorescently labelled Dvl2^PDZ (Red-maleimide, cysteine reactive); peptides serially diluted 1:2 16 times from about 3.4 mM, hWGEF (330-581) 138-0.0042 uM; 25 C, 30 min incubation; 10 mM Tris-HCl pH 8, 150 mM NaCl, 2 mM DTT, 5% glycerol, 0.05% Tween20; Monolith NT.115; triplicates; settings: both partners purified
T1 construct: Weak-similarity guanine nucleotide exchange factor (WGEF, Arhgef19, Ephexin2), human, residues 330-581; also called hWGEF; hWGEF^330-581; not shown: GST, N-terminal, cleaved
T1 sequence (looked up): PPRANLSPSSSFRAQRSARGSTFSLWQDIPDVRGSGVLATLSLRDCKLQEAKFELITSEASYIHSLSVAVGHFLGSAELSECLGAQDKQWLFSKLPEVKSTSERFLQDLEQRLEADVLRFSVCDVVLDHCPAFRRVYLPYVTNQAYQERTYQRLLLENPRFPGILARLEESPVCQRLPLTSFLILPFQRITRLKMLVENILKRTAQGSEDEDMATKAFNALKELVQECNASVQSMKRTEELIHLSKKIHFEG

[3] = target: B1; assay: as above; settings: both partners purified

Binder | GEF activity of xWGEF330 (5 uM) on Mant-GDP loaded RhoA with 0, 25 and 50 uM Dvl2^PDZ; no observable change at 25 uM [1] [fold] | Kd [2] [µM] | Kd [3] [µM]
B1 | 4 | 7.9 | 
B2 |  |  | 54
B3 |  |  | 45
B4 |  |  | 2400
B5 |  |  | 8.5
B6 |  |  | 56
